Reference: patent publication US6218508A, “Anti-microbial proteins” (Novartis AG, priority 1993, dated 2001)

Tested on: C. beticola
Assay: micro-titre plate bioassay of fungal growth inhibition
Assay type: cell-based
Details: spores of C. beticola, 96 well micro-titre plates, absorbance at 620 nm; FIGS. 4 and 7: 10 ug protein
Experimental: The thus obtained IWF is fractionated by cation exchange chromatography on a 10 ml CM-Sepharose column (Pharmacia LKB) pre-equilibrated in starting buffer (20 mM HAc (pH 4.5)). The fractionation is performed at 4° C. at a flow rate of 25 ml/h. Fractions of 3 ml are collected. Proteins not bound to the column are removed by extensive washing of the column with starting buffer. Bound proteins are eluted by applying to the column further starting buffer comprising stepwise increased salt concentrations: viz, 0.1 M NaCl, 0.3 M NACl and 0.5 M NaCl. The absorbance at 280 nm of the eluate is measured, and fractions judged to comprise protein are tested for their anti-fungal activity against C. beticola using the microtiter plate bioassay described previously (PCT Patent Application No. PCT/DK92/00108, Publication No. WO 92/17591, now assigned to Sandoz LTD). […] The inhibition of fungal growth is measured in 96 well micro-titre plates at 620 nm, essentially as described in WO 92/17591. […] The proteins, either alone or in combination with WIN N (which is purified from barley grain or stressed barley leaf as described by Hejgaard et al (FEBS Letters, 307, 389-392 (1992)), and/or a protein having a sequence corresponding to at least one of those given in SEQ ID Nos. 4-6, are incubated with spores of C. beticola. The assay mix (240 ul) contains 100 ul of potato dextrose broth (Difco), 40 ul protein sample (or buffer control) in 100 mM Tris and 20 mM NaCl (pH 8.0) as well as approximately 400 spores in 100 ul water. The micro-titre plates are sealed with tape to avoid evaporation and contamination and subsequently incubated at room temperature on an agitator operated at 200 rpm. The absorbance at 620 nm is measured each day for 8 days and plotted for each concentration of protein vs time.

Molecule: SEQ ID No 3: anti-fungal protein of 2.5-3 kDa from sugar beet leaf intercellular washing fluid, peaks 1 and 2 in FIG. 6 (SGECNMYGRCPPGYCCSKFGYCGVGRAYCG)
- anti-fungal activity (inhibition of fungal growth): significant anti-fungal activity

B1: SEQ ID No 1: anti-fungal protein of about 7 kDa from sugar beet leaf intercellular washing fluid, peak 3.1 in FIG. 3 (protein)
chain: ITCGLVASKLAPCIGYLQGAPGPSAGCCGGIKGLNSAAASPADRKTACTCLKSAATSIKGINYGKAASLPRQCGVSVPYAISPNTNCNAIH
- anti-fungal activity (inhibition of fungal growth): significant anti-fungal activity

B2: SEQ ID No 2: anti-fungal protein of about 7 kDa from sugar beet leaf intercellular washing fluid, peak 3.2 in FIG. 3 (protein)
chain: ITCGLVASKLAPCIGYLQGAPGPSAGCCGGIKGLNSAAASPADRKTACTCLKSAATSMKGINYGKAASLPRQCGVSIPYAISPNTNCNAIH
- anti-fungal activity (inhibition of fungal growth): significant anti-fungal activity
